This series has as its system LTRP5-ADD-ZIM3 (dCasX491 fused to DNMT3A ADD/CD, DNMT3L, ZIM3-KRAB) (synthetic construct). In words: cell_activity. The settings on record: HEK293T day 8; non-targeting control.

Chain of LTRP5-ADD-ZIM3 (dCasX491 fused to DNMT3A ADD/CD, DNMT3L, ZIM3-KRAB) (synthetic construct) (chain, as listed by the source): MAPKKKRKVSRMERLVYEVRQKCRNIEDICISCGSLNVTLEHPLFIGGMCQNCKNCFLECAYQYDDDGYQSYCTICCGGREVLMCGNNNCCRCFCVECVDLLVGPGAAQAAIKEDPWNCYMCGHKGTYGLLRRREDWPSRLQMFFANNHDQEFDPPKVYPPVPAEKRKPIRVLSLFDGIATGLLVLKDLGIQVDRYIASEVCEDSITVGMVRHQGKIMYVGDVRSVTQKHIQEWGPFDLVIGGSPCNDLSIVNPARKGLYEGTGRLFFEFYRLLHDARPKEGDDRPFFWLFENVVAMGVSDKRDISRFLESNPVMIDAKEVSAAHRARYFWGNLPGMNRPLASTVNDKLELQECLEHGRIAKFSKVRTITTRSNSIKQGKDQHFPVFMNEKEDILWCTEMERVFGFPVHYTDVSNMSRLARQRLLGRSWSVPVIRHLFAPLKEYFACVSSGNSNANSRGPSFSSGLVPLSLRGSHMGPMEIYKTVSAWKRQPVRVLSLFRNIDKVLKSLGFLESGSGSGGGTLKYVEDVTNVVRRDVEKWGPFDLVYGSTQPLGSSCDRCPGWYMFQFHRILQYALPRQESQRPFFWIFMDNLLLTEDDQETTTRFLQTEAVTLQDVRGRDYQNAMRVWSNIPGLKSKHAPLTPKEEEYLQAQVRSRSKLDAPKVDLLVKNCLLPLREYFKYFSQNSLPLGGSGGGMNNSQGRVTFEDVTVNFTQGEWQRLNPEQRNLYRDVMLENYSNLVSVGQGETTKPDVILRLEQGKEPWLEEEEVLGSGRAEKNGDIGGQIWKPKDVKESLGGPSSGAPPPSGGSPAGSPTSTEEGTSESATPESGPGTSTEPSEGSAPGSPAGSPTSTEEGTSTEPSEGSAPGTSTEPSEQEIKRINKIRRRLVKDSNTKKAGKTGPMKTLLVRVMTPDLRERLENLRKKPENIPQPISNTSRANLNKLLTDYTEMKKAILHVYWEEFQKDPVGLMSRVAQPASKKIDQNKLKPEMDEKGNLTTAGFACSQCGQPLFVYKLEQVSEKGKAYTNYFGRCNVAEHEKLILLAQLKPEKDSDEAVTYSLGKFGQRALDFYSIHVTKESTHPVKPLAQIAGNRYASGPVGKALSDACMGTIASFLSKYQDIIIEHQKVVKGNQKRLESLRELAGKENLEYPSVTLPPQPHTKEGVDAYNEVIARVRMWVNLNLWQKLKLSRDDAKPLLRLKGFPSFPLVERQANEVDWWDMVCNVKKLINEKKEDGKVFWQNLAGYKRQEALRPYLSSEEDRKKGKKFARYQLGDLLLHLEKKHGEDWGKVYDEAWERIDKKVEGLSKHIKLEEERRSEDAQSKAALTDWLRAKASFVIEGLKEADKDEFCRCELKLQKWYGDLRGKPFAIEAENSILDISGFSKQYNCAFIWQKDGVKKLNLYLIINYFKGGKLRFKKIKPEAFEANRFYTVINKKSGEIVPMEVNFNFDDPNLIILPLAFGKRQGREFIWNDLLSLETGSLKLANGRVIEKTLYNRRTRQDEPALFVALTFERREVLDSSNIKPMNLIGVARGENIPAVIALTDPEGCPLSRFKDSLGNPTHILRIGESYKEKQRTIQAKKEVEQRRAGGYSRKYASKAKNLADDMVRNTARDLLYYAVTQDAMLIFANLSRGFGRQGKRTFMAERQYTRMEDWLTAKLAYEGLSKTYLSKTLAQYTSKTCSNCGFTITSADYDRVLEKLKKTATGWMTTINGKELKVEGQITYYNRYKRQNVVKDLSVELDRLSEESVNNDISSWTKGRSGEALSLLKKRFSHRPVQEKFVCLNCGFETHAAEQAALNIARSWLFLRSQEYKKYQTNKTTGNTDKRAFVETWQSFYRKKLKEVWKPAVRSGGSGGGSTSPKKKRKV

“non-targeting spacer gRNA ; human B2M locus”: the activity (% HLA-negative cells) turned out to be 8.44.

The record behind these values is patent US20260240958.
